From patent publication US20120301469A1
pKd: −log10 of the molar value.

Legend:
[1] = molecular target: protein F of hRSV strain B-1 (on RSV B-1-infected Hep2 cells and on virus) (human respiratory syncytial virus, strain B-1) (UniProt P13843); assay: cell-based or functional assay
[2] = molecular target: protein F of hRSV strain Long, on virus (inactivated hRSV Long, Hytest #8RSV79; RSV Long LM-2, ATCC VR-26) (human respiratory syncytial virus, strain Long) (UniProt P12568); assay: cell-based or functional assay
[3] = molecular target: hRSV FTM-NN (membrane anchorless form of the Long fusion protein, 70 kDa) (human respiratory syncytial virus, strain Long) (UniProt P12568); assay: SPR (Biacore), FTM-NN amine-coupled on CM5 chip, 1:1 Langmuir fit

In the case of “101F Fab (WO 06/050280, humanized monoclonal antibody, in-house produced)”, the Neutralization B-1 IC50 [1] was 180 nM.
“Synagis® Mab (Palivizumab, humanized monoclonal antibody)” was tested, and the Neutralization Long IC50 [2] was 5.96 nM, the Neutralization B-1 IC50 [1] was 3.9 nM and the pKd [3] was 9.19. The koff [3] was 0.00018 s⁻¹ and the kon [3] was 280000 M⁻¹ s⁻¹.
